The values that follow come from US11833164B2, “Methods of treating Fabry disease in patients having a mutation in the GLA gene” (Amicus Therapeutics, Inc., priority 2019, dated 2023).

The test system of this assay is mutant form of α-Gal A expressed in HEK-293 cells. The experiment in a line: HEK assay (GLP HEK / Migalastat Amenability Assay): α-Gal A activity in lysates of transiently transfected HEK-293 cells incubated with or without 10 μM migalastat. Particulars: for Absolute increase (% WT): 10 μM migalastat versus baseline; for Relative increase: 10 μM migalastat α-Gal A activity relative to baseline; for 10 μM migalastat α-Gal A activity (% WT): 5 days; for 10 μM migalastat α-Gal A activity (% WT) / Baseline α-Gal A activity (% WT): percentage of baseline wild-type α-Gal A activity; for 10 μM migalastat α-Gal A activity (% WT) / Baseline α-Gal A activity (% WT) / Baseline α-Gal A activity / 10 μM migalastat α-Gal A activity: mean ± SEM; for Baseline α-Gal A activity / 10 μM migalastat α-Gal A activity: lysates of HEK-293 cells transfected with the mutant form; for Baseline α-Gal A activity: incubated 5 days in the absence of migalastat; for 10 μM migalastat α-Gal A activity: incubated 5 days with 10 μM migalastat. Type of assay: cell-based, human. The essentials:
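HEK-293 cells transiently transfected with mutant α-Gal A and incubated with or without 10 μM migalastat; lysate activity given as nmol free 4-MU released per mg protein per hour. Values are mean±SEM.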

Substitutions are numbered along the chain they refer to. Names may count otherwise.

B1: K140N (protein)
chain: MQLRNPELHLGCALALRFLALVSWDIPGARALDNGLARTPTMGWLHWERFMCNLDCQEEPDSCISEKLFMEMAELMVSEGWKDAGYEYLCIDDCWMAPQRDSEGRLQADPQRFPHGIRQLANYVHSKGLKLGIYADVGNNTCAGFPGSFGYYDIDAQTFADWGVDLLKFDGCYCDSLENLADGYKHMSLALNRTGRSIVYSCEWPLYMWPFQKPNYTEIRQYCNHWRNFADIDDSWKSIKSILDWTSFNQERIVDVAGPGGWNDPDMLVIGNFGLSWNQQVTQMALWAIMAAPLFMSNDLRHISPQAKALLQDKDVIAINQDPLGKQGYQLRQGDNFEVWERPLSGLAWAVAMINRQEIGGPRSYTIAVASLGKGVACNPACFITQLLPVKRKLGFYEWTSRLRSHINPTGTVLLQLENTMQMSLKDLL
In the case of B1, the “Absolute increase (% WT)” value was found to be 40.3 % WT, the Relative increase amounted to 1.4, the “10 μM migalastat α-Gal A activity (% WT)” value stood at 154.1 ± 11.1 % WT and the “Baseline α-Gal A activity” value stood at 40575 ± 2928 nmol/mg/h. For the same molecule, the “10 μM migalastat α-Gal A activity” value worked out at 54681 ± 3030 nmol/mg/h. Where the note is “absence of migalastat”, the “Baseline α-Gal A activity (% WT)” value is listed as 113.8 ± 9.5 % WT.

B2: A143G (protein)
chain: B1 chain with N140K, A143G
For B2, the “Absolute increase (% WT)” value was 51.9 % WT, the Relative increase is 1.8, the “10 μM migalastat α-Gal A activity (% WT)” value amounted to 119.7 ± 5.9 % WT and the “Baseline α-Gal A activity” value came to 20419 ± 1260 nmol/mg/h. For the same molecule, the “10 μM migalastat α-Gal A activity” value worked out at 36821 ± 2997 nmol/mg/h. Besides, the “Baseline α-Gal A activity (% WT)” value (absence of migalastat) stood at 67.8 ± 3.4 % WT.

B3: G144R (protein)
chain: B1 chain with N140K, G144R
On to B3, for which the “Absolute increase (% WT)” value is reported as 37.7 % WT, the Relative increase was 2.0, the “10 μM migalastat α-Gal A activity (% WT)” value is 73.4 ± 6.5 % WT and the “Baseline α-Gal A activity” value worked out at 10574 ± 838 nmol/mg/h. In addition, the “10 μM migalastat α-Gal A activity” value came to 21406 ± 1764 nmol/mg/h. The “Baseline α-Gal A activity (% WT)” value (absence of migalastat) was 35.7 ± 2.8 % WT.

B4: P146H (protein)
chain: B1 chain with N140K, P146H
In the case of B4, the “Absolute increase (% WT)” value turned out to be 21.8 % WT, the Relative increase was 3.7, the “10 μM migalastat α-Gal A activity (% WT)” value is recorded as 30.2 ± 2.1 % WT and the “Baseline α-Gal A activity” value stood at 3220 ± 211 nmol/mg/h. In addition, the “10 μM migalastat α-Gal A activity” value is 11903 ± 844 nmol/mg/h. Moreover, the “Baseline α-Gal A activity (% WT)” value (absence of migalastat) stood at 8.5 ± 0.7 % WT.

B5: G144C (protein)
chain: B1 chain with N140K, G144C
B5: the “Absolute increase (% WT)” value is reported as 7.1 % WT, the Relative increase was 3.9, the “10 μM migalastat α-Gal A activity (% WT)” value turned out to be 9.5 ± 0.8 % WT and the “Baseline α-Gal A activity” value was 759 ± 69 nmol/mg/h. Further, the “10 μM migalastat α-Gal A activity” value was 2988 ± 262 nmol/mg/h. The “Baseline α-Gal A activity (% WT)” value (absence of migalastat) was found to be 2.5 ± 0.2 % WT.

B6: P146A (protein)
chain: B1 chain with N140K, P146A
As for B6, the “Absolute increase (% WT)” value is 25.4 % WT, the Relative increase stood at 1.6, the “10 μM migalastat α-Gal A activity (% WT)” value is 64.1 ± 4.4 % WT and the “Baseline α-Gal A activity” value was determined as 15393 ± 1271 nmol/mg/h. The “10 μM migalastat α-Gal A activity” value worked out at 25029 ± 1628 nmol/mg/h. Besides, the “Baseline α-Gal A activity (% WT)” value (absence of migalastat) is 38.7 ± 2.5 % WT.

B7: G144A (protein)
chain: B1 chain with N140K, G144A
Regarding B7, the “Absolute increase (% WT)” value is 15.5 % WT, the Relative increase amounted to 1.3, the “10 μM migalastat α-Gal A activity (% WT)” value amounted to 60.4 ± 2.8 % WT and the “Baseline α-Gal A activity” value was 20304 ± 1590 nmol/mg/h. Further, the “10 μM migalastat α-Gal A activity” value was 27268 ± 1039 nmol/mg/h. Moreover, the “Baseline α-Gal A activity (% WT)” value (absence of migalastat) is listed as 44.9 ± 3.6 % WT.

B8: K140Q (protein)
chain: B1 chain with N140Q
As for B8, the “Absolute increase (% WT)” value is listed as 42.5 % WT, the Relative increase is reported as 1.4, the “10 μM migalastat α-Gal A activity (% WT)” value is reported as 165.7 ± 9.7 % WT and the “Baseline α-Gal A activity” value came to 42995 ± 3236 nmol/mg/h. The “10 μM migalastat α-Gal A activity” value is 59162 ± 3600 nmol/mg/h. For the same molecule, the “Baseline α-Gal A activity (% WT)” value (absence of migalastat) is reported as 123.2 ± 12.1 % WT.

B9: F145C (protein)
chain: B1 chain with N140K, F145C
For the molecule B9, the “Absolute increase (% WT)” value is 25.7 % WT, the Relative increase worked out at 14.4, the “10 μM migalastat α-Gal A activity (% WT)” value is 27.8 ± 0.8 % WT and the “Baseline α-Gal A activity” value came to 768 ± 54 nmol/mg/h. The “10 μM migalastat α-Gal A activity” value amounted to 11083 ± 678 nmol/mg/h. Moreover, where the note is “absence of migalastat”, the “Baseline α-Gal A activity (% WT)” value was 2.1 ± 0.2 % WT.

B10: A143E (protein)
chain: B1 chain with N140K, A143E
In the case of B10, the “Absolute increase (% WT)” value worked out at 11.4 % WT, the Relative increase is recorded as 1.5, the “10 μM migalastat α-Gal A activity (% WT)” value is 37.3 ± 1.8 % WT and the “Baseline α-Gal A activity” value amounted to 7681 ± 439 nmol/mg/h. Moreover, the “10 μM migalastat α-Gal A activity” value was determined as 11458 ± 884 nmol/mg/h. Moreover, the “Baseline α-Gal A activity (% WT)” value (absence of migalastat) is 25.9 ± 1.5 % WT.

B11: P146T (protein)
chain: B1 chain with N140K, P146T
For the molecule B11, the “Absolute increase (% WT)” value was found to be 25.0 % WT, the Relative increase amounted to 1.8, the “10 μM migalastat α-Gal A activity (% WT)” value stood at 58.6 ± 2.4 % WT and the “Baseline α-Gal A activity” value amounted to 13711 ± 1154 nmol/mg/h. Besides, the “10 μM migalastat α-Gal A activity” value amounted to 24123 ± 2081 nmol/mg/h. Under “absence of migalastat”, the “Baseline α-Gal A activity (% WT)” value is listed as 33.6 ± 1.5 % WT.

B12: K140R (protein)
chain: B1 chain with N140R
As to B12, the “Absolute increase (% WT)” value came to 39.4 % WT, the Relative increase is on record as 1.3, the “10 μM migalastat α-Gal A activity (% WT)” value turned out to be 180.9 ± 15 % WT and the “Baseline α-Gal A activity” value came out at 50348 ± 3558 nmol/mg/h. Besides, the “10 μM migalastat α-Gal A activity” value was 62820 ± 3401 nmol/mg/h. Further, the “Baseline α-Gal A activity (% WT)” value (absence of migalastat) was 141.5 ± 12 % WT.

B13: G144S (protein)
chain: B1 chain with N140K, G144S
With B13, the “Absolute increase (% WT)” value turned out to be 30.4 % WT, the Relative increase is reported as 1.6, the “10 μM migalastat α-Gal A activity (% WT)” value turned out to be 78 ± 5.6 % WT and the “Baseline α-Gal A activity” value was 14190 ± 967 nmol/mg/h. In addition, the “10 μM migalastat α-Gal A activity” value turned out to be 23153 ± 1847 nmol/mg/h. For the same molecule, the “Baseline α-Gal A activity (% WT)” value (absence of migalastat) was 47.6 ± 2.4 % WT.

B14: P146L (protein)
chain: B1 chain with N140K, P146L
B14: the “Absolute increase (% WT)” value stood at 12.4 % WT, the Relative increase came out at 1.5, the “10 μM migalastat α-Gal A activity (% WT)” value stood at 37.1 ± 2.2 % WT and the “Baseline α-Gal A activity” value came out at 9940 ± 899 nmol/mg/h. The “10 μM migalastat α-Gal A activity” value stood at 14540 ± 903 nmol/mg/h. In addition, where the note is “absence of migalastat”, the “Baseline α-Gal A activity (% WT)” value is 24.7 ± 1.8 % WT.

B15: T141S (protein)
chain: B1 chain with N140K, T141S
As to B15, the “Absolute increase (% WT)” value turned out to be 34.4 % WT, the Relative increase amounted to 1.5, the “10 μM migalastat α-Gal A activity (% WT)” value is given as 98.2 ± 9.1 % WT and the “Baseline α-Gal A activity” value is 22602 ± 2254 nmol/mg/h. Besides, the “10 μM migalastat α-Gal A activity” value came out at 34806 ± 2770 nmol/mg/h. The “Baseline α-Gal A activity (% WT)” value (absence of migalastat) was 63.8 ± 7.1 % WT.

B16: F145V (protein)
chain: B1 chain with N140K, F145V
As for B16, the “Absolute increase (% WT)” value was found to be 5.7 % WT, the “10 μM migalastat α-Gal A activity (% WT)” value is on record as 5.7 ± 0.6 % WT and the “10 μM migalastat α-Gal A activity” value is 2359 ± 333 nmol/mg/h. Besides, the “Baseline α-Gal A activity (nmol/mg/hr)” value (absence of migalastat, mean activity below the limit of detection (<142 nmol/mg/hr)) is “BLD (“BLD” indicates that the mean α-Gal A activity was below the limit of detection (<142 nmol/mg/hr))”.

B17: F145L (protein)
chain: B1 chain with N140K, F145L
As for B17, the “Absolute increase (% WT)” value is on record as 61.8 % WT, the Relative increase came to 5.5, the “10 μM migalastat α-Gal A activity (% WT)” value stood at 75.7 ± 2.9 % WT and the “Baseline α-Gal A activity” value was found to be 5455 ± 412 nmol/mg/h. The “10 μM migalastat α-Gal A activity” value is 29794 ± 1799 nmol/mg/h. For the same molecule, the “Baseline α-Gal A activity (% WT)” value (absence of migalastat) was determined as 13.9 ± 0.8 % WT.

B18: F145Y (protein)
chain: B1 chain with N140K, F145Y
Take B18: the “Absolute increase (% WT)” value was determined as 23.5 % WT, the Relative increase was determined as 1.2, the “10 μM migalastat α-Gal A activity (% WT)” value came out at 131.7 ± 5.1 % WT and the “Baseline α-Gal A activity” value amounted to 41985 ± 2942 nmol/mg/h. Besides, the “10 μM migalastat α-Gal A activity” value is 51524 ± 2970 nmol/mg/h. The “Baseline α-Gal A activity (% WT)” value (absence of migalastat) was 108.1 ± 6.2 % WT.
